The supplement of paper PMC7125110
± gives the standard error. For some assays here: This sample holds only a part of the variants without activity.

B1: glmS ribozyme (parent)
chain: AUAAAAGCGCCAGAACUACAGAAAUGUAGUUGACGAGGAGGAGGUUUAUCGAAUUUUCGGCGGAUGCCUCCAAA

What was measured:
Conditions in all cases: with glucosamine-6-phosphate
glucosamine-6-phosphate [1] = variants of: B1; test: kcat; higher = faster cleavage; RNA array
Procedure, shortened: (§1)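 Barcoded ribozyme variants on sequenced MiSeq chips were transcribed in situ by E. coli RNA polymerase and followed at 37 °C through a hybridised Cy3 probe. Glucosamine-6-phosphate at 40 μM to 10 mM in HEPES/KCl/Mg(OAc)2 buffer was flowed in, and tiles were imaged over ~14 h. Signals were normalised to baseline and to non-cleaving reference variants, and per-tile medians were fit to one- or two-exponential decays to give kobs. Weighted Michaelis–Menten fits across concentrations gave kcat and KM.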

glucosamine-6-phosphate [2] = variants of: B1; test: KM; higher = weaker cofactor use; RNA array
Procedure, shortened: as §1

glucosamine-6-phosphate [3] = variants of: B1; test: self-cleavage kobs at 640 uM GlcN6P; higher = faster cleavage; RNA array
Procedure, shortened: as §1

glucosamine-6-phosphate [4] = variants of: B1; test: self-cleavage kobs at 2500 uM GlcN6P; higher = faster cleavage; RNA array
Procedure, shortened: as §1

glucosamine-6-phosphate [5] = variants of: B1; test: self-cleavage kobs at 10000 uM GlcN6P; higher = faster cleavage; RNA array
Procedure, shortened: as §1

glucosamine-6-phosphate [6] = variants of: B1; test: self-cleavage kobs at 40 uM GlcN6P; higher = faster cleavage; RNA array
Procedure, shortened: as §1

glucosamine-6-phosphate [7] = variants of: B1; test: self-cleavage kobs at 160 uM GlcN6P; higher = faster cleavage; RNA array
Procedure, shortened: as §1

Variant	kcat (glucosamine-6-phosphate [1]) [s⁻¹]	KM (glucosamine-6-phosphate [2]) [mM]	self-cleavage kobs at 640 uM GlcN6P (glucosamine-6-phosphate [3]) [s⁻¹]	self-cleavage kobs at 2500 uM GlcN6P (glucosamine-6-phosphate [4]) [s⁻¹]	self-cleavage kobs at 10000 uM GlcN6P (glucosamine-6-phosphate [5]) [s⁻¹]	self-cleavage kobs at 40 uM GlcN6P (glucosamine-6-phosphate [6]) [s⁻¹]	self-cleavage kobs at 160 uM GlcN6P (glucosamine-6-phosphate [7]) [s⁻¹]
A14G G59A	0.000294 ± 1.8e-05	2.01 ± 0.25	6.96e-05 ± 1.2e-05	0.000183 ± 3.7e-05	0.000239 ± 3e-05		
G13C G40C	4.48e-05 ± 2e-05					< 1e-05	< 1e-05
A14U U45G C68U	0.000104 ± 5.1e-06	0.786 ± 0.16	4.96e-05 ± 1.7e-05	7.43e-05 ± 2.3e-05	9.78e-05 ± 1.7e-05		
A14G G60A	8.13e-05 ± 1.1e-05	3.02 ± 1.3		4.34e-05 ± 1.9e-05	6.17e-05 ± 1.2e-05		
A15C A53C	0.00123 ± 0.00037	2.9 ± 1.4	0.000308 ± 6e-05	0.000472 ± 0.00011	0.00102 ± 0.00019	2.74e-05 ± 1.3e-05	5.14e-05 ± 1.6e-05
G13C A53U	0.000137 ± 1.4e-05	5.25 ± 1.3		4.93e-05 ± 1.6e-05	8.95e-05 ± 1.3e-05		
A14U G59A	6.06e-05 ± 3.3e-06	9.99 ± 1			3.03e-05 ± 1.1e-05	< 1e-05	< 1e-05
G13C A15G U45A	0.000289 ± 4.4e-05	3.49 ± 0.95	4.01e-05 ± 1.3e-05	0.000129 ± 2.4e-05	0.000208 ± 4.4e-05	< 1e-05	
A14G G32A	0.0158 ± 0.0015	2.5 ± 0.31	0.00305 ± 0.0005	0.00726 ± 0.0011	0.0136 ± 0.0018	0.000266 ± 3.1e-05	0.000935 ± 0.00013
G13U U46A	3.16e-05 ± 1.5e-06	0.479 ± 0.2		2.81e-05 ± 1.2e-05	2.96e-05 ± 9.4e-06		
A14C G44C C67G	0.00155 ± 0.00052		0.000389 ± 0.0001	0.000548 ± 0.00015	0.00139 ± 0.00022	3.15e-05 ± 1.2e-05	
A14U G38C	< 1e-05		< 1e-05	< 1e-05	< 1e-05	< 1e-05	
A14U U65A	0.0015 ± 0.00017	4.46 ± 0.76	0.000203 ± 2.7e-05	0.000449 ± 0.00012	0.00105 ± 0.00012		4.54e-05 ± 1.3e-05
A14U G35U	< 1e-05			< 1e-05			< 1e-05
G13U U65G	0.000372 ± 2.8e-05	3.75 ± 0.54	5.82e-05 ± 1.2e-05	0.000136 ± 2.7e-05	0.000276 ± 3.5e-05		
